In publication PMC3855555 one finds Km and kcat data, which are given here for 1 protein.

Assay in all cases: pyrophosphate release, enzyme-coupled colorimetric assay
Common to all, as to format: biochemical, Mycolicibacterium smegmatis
Conditions in all cases: 20 mM Tris-HCl pH 7.5, 5 mM MgSO4, 100 mM NaCl, 37°C

Substrate in data set [1]: Nc1nc(O)nc2c1ncn2[C@H]1C[C@H](O)[C@@H](COP(=O)(O)OP(=O)(O)OP(=O)(O)O)O1
Substrate in data set [2]: O=Cc1cn([C@H]2C[C@H](O)[C@@H](COP(=O)(O)OP(=O)(O)OP(=O)(O)O)O2)c(=O)[nH]c1=O
Substrate in data set [3]: Nc1nc(=O)n([C@H]2C[C@H](O)[C@@H](COP(=O)(O)OP(=O)(O)OP(=O)(O)O)O2)cc1O

B1: Msm MazG (Mycolicibacterium smegmatis MC2 155) (protein)
chain: MIVVLVDPRRPALVPVDAVEFLTGDVQYTEEMPVKVPWSLPSARPAYDGEDAPVLLSSDPEHPVVKARLAAGDRLIAAPEPQPGERLVDAVALMDKLRTSGPWESEQTHDSLRRYLLEETYELFDAVRSGNADELREELGDVLLQVLFHARIAEDAPHHPFSIDDVADALVRKLGNRVPAVLAGESISLDEQLAQWEERKAQEKKVKARASSMDDVPTGQPALALAQKVLARVSQAGLPAELIPASLTSVSVSADTDSENELRTAVLEFMDTVREVEAAVAAGRRGEDVPEELDVAPLGVISEDEWRAYWPGAESSASEAEPEE
notes: heterologously expressed, purified to nearly SDS-PAGE homogeneity; strain given for the bacteria, not for the protein
Turning to B1, the Michaelis-Menten constant (Km) (commonly the concentration of substrate that gives half-maximal velocity) in data set [1] was 311 µM; in data set [2], 434 ± 82 µM; in data set [3], 5.6 ± 2.2 µM. The figures for the turnover number (kcat) in data set [2] and in data set [3] were 1 s⁻¹ and 0.013 s⁻¹, respectively.
